Data reported in patent publication US12065505B2, “Antibodies and antigen binding peptides for factor XIa inhibitors and uses thereof” (Bristol-Myers Squibb Company, priority 2021, dated 2024).
Substitutions are numbered along the chain they refer to.

B1: 26D5-75602-348-F04-mAb: human IgG1f/kappa mAb; VH SEQ ID NO: 58, VL SEQ ID NO: 88 (antibody, V domains shown)
VH: EVQLVESGGGLIQPGGSLRLSCAASGFTVSSNQFSWVRQAPGKGLEWVSYFYPGGRTYYADSVKGRFTISRDNSKNTLYLQMNSLRAEDTAVYYCAKAGFGGGDYWGQGTLVTVSS
VL: DIQMTQSPSSVSASVGDRVTITCRASQGISSNLAWYQQKPGKAPKLLIYAASSLQSGVPSRFSGSGSGTDFTLTISSLQPEDFATYYCQQANSFPLTFGGGTKVEIK
B2: 26D5-296-D08-mAb: human IgG1f/kappa mAb; VH SEQ ID NO: 69, VL SEQ ID NO: 95 (antibody, V domains shown)
VH: B1 VH with Q33Y, F34M, Y50F, F51I, K97R, A98G
VL: B1 VL with G28Y, S30E
B3: 26D5-296-G07-mAb: human IgG1f/kappa mAb; VH SEQ ID NO: 65, VL SEQ ID NO: 94 (antibody, V domains shown)
VH: B1 VH with S31E, Q33Y, F34M, Y50F, F51I, P53S, K97R
VL: B1 VL with G28Y
B4: 26D5-295-F07-mAb: human IgG1f/kappa mAb; VH SEQ ID NO: 64, VL SEQ ID NO: 88 (antibody, V domains shown)
VH: B1 VH with S31E, Q33A, F34M, Y50F, F51I, P53S, K97R, A98G
VL: B1 VL
B5: 26D5-295-C07-mAb: human IgG1f/kappa mAb; VH SEQ ID NO: 67, VL SEQ ID NO: 88 (antibody, V domains shown)
VH: B1 VH with Q33A, F34M, Y50F, F51I, P53S, K97R, A98G
VL: B1 VL
B6: 26D5-75576-348-B03-mAb: human IgG1f/kappa mAb; VH SEQ ID NO: 59, VL SEQ ID NO: 88 (antibody, V domains shown)
VH: B1 VH with Q33D, F34M, W36Y, S49A, F51I, P53S, A96V, K97T
VL: B1 VL
B7: 25D5-75592-0348-A04-mAb: human IgG1f/kappa mAb; VH SEQ ID NO: 61, VL SEQ ID NO: 89 (antibody, V domains shown)
VH: B1 VH with Q33A, F34I, S35A, S49A, F51I, A96V, K97T
VL: B1 VL with L33N, A34Q, A50Y, A91G, S93E
B8: 26D5-296-F03-mAb: human IgG1f/kappa mAb; VH SEQ ID NO: 70, VL SEQ ID NO: 88 (antibody, V domains shown)
VH: B1 VH with T28Q, Q33Y, F34M, Y50F, F51I, P53S, K97R
VL: B1 VL
B9: 26D5-296-G08-mAb: human IgG1f/kappa mAb; VH SEQ ID NO: 70, VL SEQ ID NO: 95 (antibody, V domains shown)
VH: B1 VH with T28Q, Q33Y, F34M, Y50F, F51I, P53S, K97R
VL: B1 VL with G28Y, S30E
B10: 26D5-295-G07-mAb: human IgG1f/kappa mAb; VH SEQ ID NO: 69, VL SEQ ID NO: 88 (antibody, V domains shown)
VH: B1 VH with Q33Y, F34M, Y50F, F51I, K97R, A98G
VL: B1 VL
B11: 26D5-75746-0348-C07-mAb: human IgG1f/kappa mAb; VH SEQ ID NO: 57, VL SEQ ID NO: 92 (antibody, V domains shown)
VH: B1 VH with Q33A, F51I, P53S, K97A
VL: B1 VL with N32Q, L33V, A50P, S53N, Q55W, S93N
B12: 25D5-296-A07-mAb: human IgG1f/kappa mAb; VH SEQ ID NO: 60, VL SEQ ID NO: 93 (antibody, V domains shown)
VH: B1 VH with Q33A, F34M, Y50F, F51I, K97R
VL: B1 VL with N32W, A91H
B13: 26D5-296-F07-mAb: human IgG1f/kappa mAb; VH SEQ ID NO: 71, VL SEQ ID NO: 94 (antibody, V domains shown)
VH: B1 VH with Q33Y, F34M, Y50F, F51I, P53S, K97R
VL: B1 VL with G28Y
B14: 26D5-296-H03-mAb: human IgG1f/kappa mAb; VH SEQ ID NO: 63, VL SEQ ID NO: 88 (antibody, V domains shown)
VH: B1 VH with Q33A, F34M, Y50F, F51I, K97R, A98G
VL: B1 VL
B15: 26D5-296-C08-mAb: human IgG1f/kappa mAb; VH SEQ ID NO: 66, VL SEQ ID NO: 95 (antibody, V domains shown)
VH: B1 VH with T28Q, Q33A, F34M, Y50F, F51I, P53S, K97R, A98G
VL: B1 VL with G28Y, S30E
B16: 26D5-075017-343-F04-mAb: human IgG1f/kappa mAb; VH SEQ ID NO: 60, VL SEQ ID NO: 91 (antibody, V domains shown)
VH: B1 VH with Q33A, F34M, Y50F, F51I, K97R
VL: B1 VL with Y36W
B17: 26D5-296-B07-mAb: human IgG1f/kappa mAb; VH SEQ ID NO: 68, VL SEQ ID NO: 93 (antibody, V domains shown)
VH: B1 VH with T28Q, Q33A, F34M, Y50F, F51I, P53S, K97R
VL: B1 VL with N32W, A91H
B18: 26D5-295-E07-mAb: human IgG1f/kappa mAb; VH SEQ ID NO: 66, VL SEQ ID NO: 88 (antibody, V domains shown)
VH: B1 VH with T28Q, Q33A, F34M, Y50F, F51I, P53S, K97R, A98G
VL: B1 VL

Experiment: SPR (Biacore) Protein A mAb capture, Compound A injected
Conditions: 37° C., binding to Compound A, apparent affinity, for rank ordering only, read-out: KD
Experimental: The binding of hybridoma expressed 26D5 parent mAb (VH SEQ ID NO: 83 and VL SEQ ID NO: 98 in IgG1 f format)(P1-072224) and affinity matured mAbs to Compound A was examined by SPR (Biacore™) using a protein A capture method. The running buffer was 1×PBS (phosphate buffered saline, pH 7.4) with 0.05% Tween 20 and 2% DMSO. Binding experiments were carried out at 37° C. Protein A was coated on a CM5 S-series sensor chip (Cytiva, Cat. No. 29149603) at high density (2000+ RUs of protein A). The immobilization of protein A was carried out using the standard amine coupling immobilization procedure recommended by the manufacturer. The affinity matured antibody was then captured at a concentration of 2 ug/mL on the protein A surface at a flow rate of 3 uL/min for 2 minutes. Compound A was then injected over the captured antibody at concentrations spanning 100-3 nM (100, 50, 25, 12.5, 6.25, 3.125 nM) (FIG. 10) and for screening concentrations spanning 100-3 nM (100, 33, 11 nM) for 2 minutes at a flow rate of 100 uL/min and allowed to dissociate for at least 450 seconds. The chip surface was regenerated after each cycle with a 40 second pulse of 10 mM Glycine, pH 1.5. Background binding to the protein A surface alone was used to subtract non-specific binding. All experiments were run on a Biacore T200 surface plasmon resonance instrument using Biacore T200 Control software v. 2. Data analysis was performed using Biacore T200 evaluation software v 3.1. Apparent affinities were determined for rank ordering only since dissociation rates were too slow to be measured by Biacore. The names of the mAbs in Table 10 refer to mAbs having the H and L chain sequences of the corresponding Fabs in Table 3 in an IgG1f format.

Kd | Molecule
< 0.05 nM | B1
0.59 nM | B2
0.38 nM | B3
0.94 nM | B4
1.6 nM | B5
< 0.06 nM | B6
0.1 nM | B7
0.54 nM | B8
0.49 nM | B9
0.67 nM | B10
0.1 nM | B11
1.6 nM | B12
0.58 nM | B13
1.1 nM | B14
0.59 nM | B15
0.11 nM | B16
1.8 nM | B17
1.2 nM | B18

Same assay, conditions: 37° C., binding to Compound A, apparent, for rank ordering only

Kd | Molecule | Ka
<5e-05 s⁻¹ | B1 | 910000 M⁻¹ s⁻¹
0.00045 s⁻¹ | B2 | 770000 M⁻¹ s⁻¹
0.00032 s⁻¹ | B3 | 850000 M⁻¹ s⁻¹
0.00017 s⁻¹ | B4 | 180000 M⁻¹ s⁻¹
0.00033 s⁻¹ | B5 | 200000 M⁻¹ s⁻¹
<5e-05 s⁻¹ | B6 | 880000 M⁻¹ s⁻¹
0.00011 s⁻¹ | B7 | 1e+06 M⁻¹ s⁻¹
0.00039 s⁻¹ | B8 | 720000 M⁻¹ s⁻¹
0.00039 s⁻¹ | B9 | 800000 M⁻¹ s⁻¹
0.00043 s⁻¹ | B10 | 630000 M⁻¹ s⁻¹
0.00024 s⁻¹ | B11 | 2.4e+06 M⁻¹ s⁻¹
0.00027 s⁻¹ | B12 | 170000 M⁻¹ s⁻¹
0.00044 s⁻¹ | B13 | 760000 M⁻¹ s⁻¹
0.00018 s⁻¹ | B14 | 160000 M⁻¹ s⁻¹
0.00031 s⁻¹ | B15 | 530000 M⁻¹ s⁻¹
0.00017 s⁻¹ | B16 | 1.5e+06 M⁻¹ s⁻¹
0.00042 s⁻¹ | B17 | 290000 M⁻¹ s⁻¹
0.00023 s⁻¹ | B18 | 190000 M⁻¹ s⁻¹
